The supplement of paper PMC7877785
± gives the uncertainty stated by the source.

Test: self-splicing fitness, log relative to wild type (ln ratio); higher = more splicing; Tetrahymena group I intron in knt gene, E. coli kanamycin selection, DiMSum; sequences stand for … in CUCUCU…GGAGGGAAAAGUUAUCAGGCAUGCACCUGGUAGCUAGUCUUUAAACCAAUAGAUUGCAUCGGUUUAAAAGGCAAGACCGUCAAAUUGCGGGAAAGGGGUCAACAGCCGUUCAGUACCAAGUCUCAGGGGAAACUUUGAGAUGGCCUUGCAAAGGGUAUGGUAAUAAGCUGACGGACAUGGUCCUAACCACGCAGCCAAGUCCUAAGUCAACAGAUCUUCUGUUGAUAUGGAUGCAGUUCACAGACUAAAUGUCGGUCGGGGAAGAUGUAUUCUUCUCAUAAGAUAUAGUCGGACCUCUCCUUAAUGGGAGCUAGCGGAUGAAGUGAUGCAACACUGGAGCCGCUGGGAACUAAUUUGUAUGCGAAAGUAUAUUGAUUAGUUUUGGAGUACUCGUGGUCG
How it was run: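 Colonies from six replicate transformations of E. coli BL21(DE3) were pooled and amplicon-sequenced on an Illumina HiSeq 2500. The library placed an intron with all eight P1ex-region nucleotides randomised inside the knt kanamycin-resistance gene on pET-22b(+), and cells grew overnight at 37°C or 30°C on LB agar with or without 25 μg/mL kanamycin (plus 100 μg/mL carbenicillin, 50 μM IPTG, 0.2% rhamnose). Fitness is the DiMSum error-weighted combination of wild-type-normalised replicate fold changes, kanamycin versus none.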

With UCAUAGCAAUAUUACGGCCU the “self-splicing fitness (ln)” value (30 °C) was -3.03 ± 0.17 and the “self-splicing fitness (ln)” value (37 °C) was -2.48 ± 0.31.

For CUGAAGCAAUAUUACGCGCG, the “self-splicing fitness (ln)” value (30 °C) was 0.18 ± 0.092 and the “self-splicing fitness (ln)” value (37 °C) was -0.0678 ± 0.075.

In the case of ACGCAGCAAUAUUACGAUUG, the “self-splicing fitness (ln)” value (30 °C) is reported as -2.96 ± 0.18 and the “self-splicing fitness (ln)” value (37 °C) is reported as -1.82 ± 0.17.

With AUCAAGCAAUAUUACGCAUA the “self-splicing fitness (ln)” value (30 °C) was -1.94 ± 0.099 and the “self-splicing fitness (ln)” value (37 °C) was -0.751 ± 0.084.

For CCAGAGCAAUAUUACGGGGG, the “self-splicing fitness (ln)” value (30 °C) was -3.72 ± 0.46 and the “self-splicing fitness (ln)” value (37 °C) was -2.44 ± 0.31.

In the case of CACGAGCAAUAUUACGGCAC, the “self-splicing fitness (ln)” value (30 °C) is reported as -2.97 ± 0.23 and the “self-splicing fitness (ln)” value (37 °C) is reported as -2.43 ± 0.25.

With CCUCAGCAAUAUUACGUAAC the “self-splicing fitness (ln)” value (37 °C) was -2.13 ± 0.47.

For GUACAGCAAUAUUACGAAUG, the “self-splicing fitness (ln)” value (30 °C) was -3.54 ± 0.25 and the “self-splicing fitness (ln)” value (37 °C) was -0.988 ± 0.18.

For CCCGAGCAAUAUUACGAGGC, the “self-splicing fitness (ln)” value (30 °C) was -2.89 ± 0.28 and the “self-splicing fitness (ln)” value (37 °C) was -2.47 ± 0.27.

In the case of UCAGAGCAAUAUUACGGCCC, the “self-splicing fitness (ln)” value (30 °C) is reported as -2.13 ± 0.39 and the “self-splicing fitness (ln)” value (37 °C) is reported as -0.0611 ± 0.34.

For UUAAAGCAAUAUUACGCCGA, the “self-splicing fitness (ln)” value (30 °C) was -0.193 ± 0.12 and the “self-splicing fitness (ln)” value (37 °C) was 0.491 ± 0.15.

In the case of GCGAAGCAAUAUUACGUCAG, the “self-splicing fitness (ln)” value (30 °C) is reported as -3.41 ± 0.2 and the “self-splicing fitness (ln)” value (37 °C) is reported as -2.52 ± 0.26.

For CAGGAGCAAUAUUACGCCUU, the “self-splicing fitness (ln)” value (30 °C) was -1.86 ± 0.24 and the “self-splicing fitness (ln)” value (37 °C) was -1.99 ± 0.33.

In the case of UCGGAGCAAUAUUACGUCUG, the “self-splicing fitness (ln)” value (30 °C) is reported as -2.56 ± 0.19 and the “self-splicing fitness (ln)” value (37 °C) is reported as -0.878 ± 0.24.

With CACCAGCAAUAUUACGCGCG the “self-splicing fitness (ln)” value (30 °C) was -0.00123 ± 0.053 and the “self-splicing fitness (ln)” value (37 °C) was 0.499 ± 0.069.

With GUCAAGCAAUAUUACGAUUG the “self-splicing fitness (ln)” value (37 °C) was -3.59 ± 0.34.

For AGUUAGCAAUAUUACGACUU, the “self-splicing fitness (ln)” value (30 °C) was -1.32 ± 0.078 and the “self-splicing fitness (ln)” value (37 °C) was -0.587 ± 0.12.

In the case of GGACAGCAAUAUUACGUCUG, the “self-splicing fitness (ln)” value (30 °C) is reported as -1.1 ± 0.057 and the “self-splicing fitness (ln)” value (37 °C) is reported as -0.31 ± 0.072.

For GAGUAGCAAUAUUACGCGUA, the “self-splicing fitness (ln)” value (30 °C) was -2.66 ± 0.33 and the “self-splicing fitness (ln)” value (37 °C) was -0.648 ± 0.29.

For UCACAGCAAUAUUACGACGC, the “self-splicing fitness (ln)” value (30 °C) was -2.07 ± 0.15 and the “self-splicing fitness (ln)” value (37 °C) was -1.03 ± 0.2.

In the case of AGAUAGCAAUAUUACGGGUC, the “self-splicing fitness (ln)” value (30 °C) is reported as -3.73 ± 0.25 and the “self-splicing fitness (ln)” value (37 °C) is reported as -2.36 ± 0.25.

In the case of GCAUAGCAAUAUUACGCGGU, the “self-splicing fitness (ln)” value (30 °C) is reported as -3.29 ± 0.16 and the “self-splicing fitness (ln)” value (37 °C) is reported as -1.77 ± 0.16.

For AGUGAGCAAUAUUACGCAUU, the “self-splicing fitness (ln)” value (30 °C) was -2.55 ± 0.21 and the “self-splicing fitness (ln)” value (37 °C) was -1.4 ± 0.19.

For ACUCAGCAAUAUUACGCCCU, the “self-splicing fitness (ln)” value (30 °C) was -0.136 ± 0.15 and the “self-splicing fitness (ln)” value (37 °C) was 0.51 ± 0.17.

With GCGUAGCAAUAUUACGCUUU the “self-splicing fitness (ln)” value (30 °C) was -3.68 ± 0.22 and the “self-splicing fitness (ln)” value (37 °C) was -3.98 ± 0.19.

In the case of AUCUAGCAAUAUUACGUUUA, the “self-splicing fitness (ln)” value (30 °C) is reported as -2.26 ± 0.13 and the “self-splicing fitness (ln)” value (37 °C) is reported as -2.3 ± 0.13.

For CUCCAGCAAUAUUACGGGUC, the “self-splicing fitness (ln)” value (30 °C) was -3.88 ± 0.24 and the “self-splicing fitness (ln)” value (37 °C) was -2.2 ± 0.22.

With GAAGAGCAAUAUUACGUUUG the “self-splicing fitness (ln)” value (30 °C) was -4.05 ± 0.2 and the “self-splicing fitness (ln)” value (37 °C) was -2.8 ± 0.23.

With CCUCAGCAAUAUUACGUGCU the “self-splicing fitness (ln)” value (30 °C) was -3.84 ± 0.33 and the “self-splicing fitness (ln)” value (37 °C) was -2.62 ± 0.39.

For GACUAGCAAUAUUACGGUAA, the “self-splicing fitness (ln)” value (30 °C) was -0.126 ± 0.084 and the “self-splicing fitness (ln)” value (37 °C) was -0.197 ± 0.078.

For UAUCAGCAAUAUUACGCGAU, the “self-splicing fitness (ln)” value (37 °C) was -2.49 ± 0.23.

For CAUCAGCAAUAUUACGUUAU, the “self-splicing fitness (ln)” value (30 °C) was -3.34 ± 0.12 and the “self-splicing fitness (ln)” value (37 °C) was -2.02 ± 0.11.

For CUACAGCAAUAUUACGGGCU, the “self-splicing fitness (ln)” value (30 °C) was -4.53 ± 0.29 and the “self-splicing fitness (ln)” value (37 °C) was -2.97 ± 0.29.

For UGGUAGCAAUAUUACGAAGA, the “self-splicing fitness (ln)” value (30 °C) was -1.45 ± 0.4 and the “self-splicing fitness (ln)” value (37 °C) was -2.3 ± 0.49.

In the case of UUUCAGCAAUAUUACGUCCG, the “self-splicing fitness (ln)” value (30 °C) is reported as -1.59 ± 0.14 and the “self-splicing fitness (ln)” value (37 °C) is reported as -1 ± 0.21.

In the case of GCAAAGCAAUAUUACGCUUU, the “self-splicing fitness (ln)” value (30 °C) is reported as -3.49 ± 0.15 and the “self-splicing fitness (ln)” value (37 °C) is reported as -3.27 ± 0.22.

In the case of GAAUAGCAAUAUUACGUUUG, the “self-splicing fitness (ln)” value (30 °C) is reported as -1.61 ± 0.15 and the “self-splicing fitness (ln)” value (37 °C) is reported as -1.05 ± 0.15.

For UGCCAGCAAUAUUACGUCUG, the “self-splicing fitness (ln)” value (30 °C) was -2.57 ± 0.15 and the “self-splicing fitness (ln)” value (37 °C) was -1.48 ± 0.16.
